The text below walks through data of patent US20250213684A1 (Novartis, published 2025).

Test [1] deals with T1, murine TIM-3 expressed in cells (murine, UniProt Q8VIM0 20-281).
T1 construct: whole, on cells; also called mouse TIM-3
Description: flow cytometry on cells expressing murine TIM-3. On the technique in general: A flow cytometer gives signals particle by particle.

The target of test [2] is T2, human TIM-3 expressed on cells (human, UniProt Q8TDQ0 22-301).
T2 construct: also called huTIM-3; hTIM-3
The experiment in a line: flow cytometry on activated human PBMCs, CD4 gated.

For test [3], the target named is T2, human TIM-3 expressed on cells. The experiment in a line: flow cytometry on cells expressing human TIM-3.
For test [4] the target is unchanged. The experiment in a line: flow cytometry, 300.19 huTIM3 cells, detected by secondary Ab-FITC.
Test [5] concerns the target T3, cynomolgus TIM-3 expressed on transfected cells (cynomolgus monkey, UniProt A0A2K5U3G7 22-294).
T3 construct: whole, on cells; also called cynoTIM-3; cynomolgus monkey TIM-3
T3 sequence: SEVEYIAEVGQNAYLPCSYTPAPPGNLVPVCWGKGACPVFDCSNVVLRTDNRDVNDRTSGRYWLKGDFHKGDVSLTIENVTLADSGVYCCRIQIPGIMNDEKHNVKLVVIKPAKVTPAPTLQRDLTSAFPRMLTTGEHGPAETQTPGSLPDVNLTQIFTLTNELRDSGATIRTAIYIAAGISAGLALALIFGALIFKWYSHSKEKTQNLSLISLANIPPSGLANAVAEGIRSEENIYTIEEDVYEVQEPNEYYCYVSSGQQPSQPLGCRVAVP
Description: flow cytometry (Median FI-FITC), CynoTim-3-300.19 cells.

The target in test [6] is TIM-3 (antigen; species and construct not stated for the assay) (UniProt Q8TDQ0 22-202, limits assumed). Description: FACS competition binding against the parent murine ABTIM3; cells not named on the sheet.
For test [7], the target named is T2, human TIM-3 expressed on cells. The experiment in a line: flow cytometry competition on 300.19 hTIM3 cells in presence of ABTIM3; signal is MFI of 0.51ug/ml 22C1-PE.
For test [8], the target named is T4, human TIM-4 expressed in CHO cells (human, UniProt Q96H15 25-378).
T4 construct: whole, on cells
T4 sequence (looked up): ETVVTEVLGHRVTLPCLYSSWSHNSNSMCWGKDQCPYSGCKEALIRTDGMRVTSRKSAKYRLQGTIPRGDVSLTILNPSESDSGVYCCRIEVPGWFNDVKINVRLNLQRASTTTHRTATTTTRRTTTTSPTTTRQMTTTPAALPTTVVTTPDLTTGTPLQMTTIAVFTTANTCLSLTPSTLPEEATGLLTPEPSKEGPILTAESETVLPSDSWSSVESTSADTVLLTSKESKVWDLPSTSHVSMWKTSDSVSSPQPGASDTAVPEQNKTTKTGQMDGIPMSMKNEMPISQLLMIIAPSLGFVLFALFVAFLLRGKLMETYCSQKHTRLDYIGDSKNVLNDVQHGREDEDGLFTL
Description: flow cytometry on CHO cells expressing human TIM-4.

The target in test [9] is T2, human TIM-3 expressed on cells. Description: flow cytometry on activated human PBMCs, CD8 gated.

T1 sequence (Q8VIM0 20-281): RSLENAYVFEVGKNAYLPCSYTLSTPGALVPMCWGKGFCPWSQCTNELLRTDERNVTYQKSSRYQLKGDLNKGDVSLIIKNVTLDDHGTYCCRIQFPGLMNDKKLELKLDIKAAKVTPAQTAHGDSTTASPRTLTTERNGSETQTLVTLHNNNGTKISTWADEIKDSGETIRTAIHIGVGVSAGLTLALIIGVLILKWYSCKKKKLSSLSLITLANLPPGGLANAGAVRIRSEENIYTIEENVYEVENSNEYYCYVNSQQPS

B1: ABTIM3 (antibody, V domains shown)
VH: QVQLQQPGAELVKPGASVKMSCKASGYTFTSYNMHWIKQTPGQGLEWIGDIYPGNGDTSYNQKFKGKATLTADKSSSTVYMQLSSLTSEDSAVYYCARVGGAFPMDYWGQGTSVTVSS
VL: DIVLTQSPASLAVSLGQRATISCRASESVEYYGTSLMQWYQQKPGQPPKLLIYAASNVESGVPARFSGSGSGTDFSLNIHPVEEDDIAIYFCQQSRKDPSTFGGGTKLEIK
notes: Murine monoclonal antibody; also called murine anti-TIM-3 antibody ABTIM3; parent murine anti-TIM-3 antibody
The Kd is the free concentration of one partner at which half of the binding sites on the other are occupied at equilibrium, for simple one-to-one binding. Higher therefore signals a looser complex. Usually EC50 (read off the curve) stands for the concentration needed to bring the measured effect to its halfway point. In the case of B1, the binding result in test [1] and in test [8] was “no binding” each time. The Kd in test [2] was 0.29 nM; in test [3], 1.04 nM; in [9] it was 0.3 nM. In addition, the “EC50 (read off the curve)” value in [4] was roughly 0.1 µg/mL; in test [5], roughly 0.3 µg/mL. For the same molecule, the “IC50 (read off the curve)” value in test [6] and in test [7] was roughly 0.2 µg/mL each time.
